Holding throughout (assay): antigen assigned by the filing's classifying and identification method; details for this clone not given
For experiment [1], the target named is T1, IgSF4 (immunoglobulin superfamily member 4) (Homo sapiens, UniProt Q9BY67 45-442).
T1 construct: Native protein on cancer cell lines; also called BL2; ST17
T1 sequence: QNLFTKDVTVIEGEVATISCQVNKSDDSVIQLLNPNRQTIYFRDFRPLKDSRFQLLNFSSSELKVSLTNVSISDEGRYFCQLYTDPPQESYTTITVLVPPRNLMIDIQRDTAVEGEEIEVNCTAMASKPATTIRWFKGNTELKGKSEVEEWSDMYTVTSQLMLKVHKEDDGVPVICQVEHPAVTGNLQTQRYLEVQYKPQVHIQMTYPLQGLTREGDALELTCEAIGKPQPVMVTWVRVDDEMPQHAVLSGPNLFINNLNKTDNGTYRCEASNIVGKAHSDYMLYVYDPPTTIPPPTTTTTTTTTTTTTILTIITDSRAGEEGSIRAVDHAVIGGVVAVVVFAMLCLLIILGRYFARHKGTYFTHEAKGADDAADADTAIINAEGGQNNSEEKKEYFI

Experiment [2] addresses T2, CD46 antigen (Homo sapiens (Human), UniProt P15529 35-392).
T2 construct: Native protein on cancer cell lines; also called MCP (Membrane Co-factor Protein); gp45-70
T2 sequence: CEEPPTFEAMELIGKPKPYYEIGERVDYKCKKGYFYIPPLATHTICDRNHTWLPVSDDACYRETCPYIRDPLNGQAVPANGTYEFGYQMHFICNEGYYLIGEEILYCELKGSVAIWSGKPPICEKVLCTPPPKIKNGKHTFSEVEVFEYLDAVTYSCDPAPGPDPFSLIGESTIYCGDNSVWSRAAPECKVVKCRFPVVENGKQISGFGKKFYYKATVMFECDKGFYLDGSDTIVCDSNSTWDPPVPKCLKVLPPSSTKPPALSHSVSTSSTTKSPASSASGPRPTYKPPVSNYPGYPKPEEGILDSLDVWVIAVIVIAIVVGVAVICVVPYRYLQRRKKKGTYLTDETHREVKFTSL

Experiment [3] deals with T3, BCAM (basal cell adhesion molecule) (Lutheran blood group) (Homo sapiens (Human), UniProt P50895 32-628, limits assumed).
T3 construct: also called CD239 antigen
T3 sequence: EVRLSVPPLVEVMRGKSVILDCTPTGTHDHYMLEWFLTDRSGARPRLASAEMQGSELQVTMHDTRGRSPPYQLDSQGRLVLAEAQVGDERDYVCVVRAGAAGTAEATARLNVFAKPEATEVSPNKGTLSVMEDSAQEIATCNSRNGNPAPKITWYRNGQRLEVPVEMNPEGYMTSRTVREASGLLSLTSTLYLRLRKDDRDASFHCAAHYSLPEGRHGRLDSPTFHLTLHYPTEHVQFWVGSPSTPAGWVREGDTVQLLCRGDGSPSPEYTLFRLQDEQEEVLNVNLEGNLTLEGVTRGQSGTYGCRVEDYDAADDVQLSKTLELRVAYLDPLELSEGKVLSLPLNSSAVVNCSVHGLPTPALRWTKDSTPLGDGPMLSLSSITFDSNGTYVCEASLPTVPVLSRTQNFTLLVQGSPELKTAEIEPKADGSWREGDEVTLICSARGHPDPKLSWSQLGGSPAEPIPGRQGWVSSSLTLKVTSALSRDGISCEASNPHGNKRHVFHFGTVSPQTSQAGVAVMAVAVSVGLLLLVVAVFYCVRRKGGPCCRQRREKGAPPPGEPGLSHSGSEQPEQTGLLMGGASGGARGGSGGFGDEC

B1: 076-048 antibody (antibody, V domains shown)
VH: QVQLVQSGAEVKKPGSSVKVSCRASGGTFSSYAISWVRQAPGQGLEWMGGIIPIFGTANYAQKFQGRVTITADKSTSTAYMELSSLRSEDTAVYYCAGDISRGSSWYGYYFDYWGQGTLVTVSR
VL: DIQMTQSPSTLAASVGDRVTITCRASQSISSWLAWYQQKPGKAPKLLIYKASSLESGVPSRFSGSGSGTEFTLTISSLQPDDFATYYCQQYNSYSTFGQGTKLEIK
notes: Clone of the scFv-CL-cp3 phage library
For the molecule B1, in experiment [1], the binding result is given as “binds”.

B2: 066-069 antibody (antibody, V domains shown)
VH: QVQLVQSEAEVKKPGESLKISCKGSGYSFTSYWIGWVRQMPGKGLEWMGIIYPGDSDTRYSPSFQGQVTISADKSISTAYLQWSSLKASDTAMYYCARTIGLGAFDIWGQGTTVTVSR
VL: SSELTQDPAVSVALGQTVRITCQGDSLRSYYASWYQQKPGQAPVLVIYGKNNRPSGIPDRFSGSSSGNTASLTITGAQAEDEADYYCNSRDSSGNHHYVFGTGTKVTVLG
notes: as for B1
On to B2, for which, in experiment [2], the binding result is reported as “binds”.

B3: 067-024 antibody (antibody, V domains shown)
VH: QVQLVQSGAEVKKPGASVKVSCKASGYTFTSYYMHWVRQAPGQGLEWMGIINPSGGSTSYAQKFQGRVTMTRDTSTSTVYMELSSLRSEDTAVYYCARAKRRGSAFDIWGQGTTVTVSR
VL: SSELTQDPAVSVALGQTVRITCQGDSLRSYYASWYQQKPGQAPVLVIYGKNNRPSGIPDRFSGSSSGNTASLTITGAQAEDEADYYCNSRDSSGNHVVFGGGTKLTVLG
notes: as for B1
In the case of B3, the binding result in experiment [3] was “binds”.

Source of the values: US20090203538A1 (INSTITUTE FOR ANTIBODIES, published 2009).
